Data reported in patent publication US20250059258A1.

Legend:
[1] = molecular target: Herceptin Fab with a kappa light chain and binding specificity for Her2/neu (from the monoclonal antibody trastuzumab); assay: BLI (ForteBio), biotinylated ligand on sensor, 1:1 fit
[2] = molecular target: Tremfya Fab with a lambda light chain and binding specificity for IL23 (from the monoclonal antibody guselkumab); assay: as above
[3] = molecular target: dimeric human IgG-lambda (Southern Biotech, Birmingham AL); assay: as above
[4] = molecular target: Herceptin Fab with a kappa light chain and binding specificity for Her2/neu (from the monoclonal antibody trastuzumab); assay: BLI (ForteBio), biotinylated ligand on sensor, as in Example 2
[5] = molecular target: Tremfya Fab with a lambda light chain and binding specificity for IL23 (from the monoclonal antibody guselkumab); assay: as above
[6] = molecular target: dimeric human IgG-lambda (Southern Biotech, Birmingham AL); assay: as above
[7] = molecular target: Ajovy (IgG2 monoclonal antibody); assay: BLI, biotinylated ligand on sensor; 'Binding affinity (nM)'
[8] = molecular target: Dupixent (IgG4 monoclonal antibody); assay: as above
[9] = molecular target: Praluent (IgG1 monoclonal antibody); assay: as above

| Kd [1] [nM] | Kd [2] [nM] | Kd [3] [nM] | Kd [4] [nM] | Kd [5] [nM] | Kd [6] [nM] | Kd [7] [nM] | Kd [8] [nM] | Kd [9] [nM] | Binder |
| --- | --- | --- | --- | --- | --- | --- | --- | --- | --- |
|  |  |  |  |  |  | 117 | 32 | < 1 | affinity ligand SEQ ID NO: 155 (designed binder, biotinylated (AviTag system)) MGDEAERWYDLGAAYAARGDYDRAIEYYQRALEHDPNDAWAWWELGVAYAARGDYDRAIEYYQRALELDTNNAVAWARLGIAYAARGDYDRAIEYYQRALELDPNNEVARGALEYARRARRCHHHHHH |
|  |  |  |  |  |  | 282 | 176 | < 1 | affinity ligand SEQ ID NO: 158 (designed binder, biotinylated (AviTag system)) MGDEAERWYDLGAAYAARGDYDRAIEYYQRALELDPNDAWAWWELGVAYAARGDYDRAIEYYQRALELDLNNAVAWARLGIAYAARGDYDRAIEYYQRALELDPNNEVARDALEYARRARRCHHHHHH |
|  |  |  |  |  |  | 436 | 9 | < 1 | affinity ligand SEQ ID NO: 159 (designed binder, biotinylated (AviTag system)) MGHHHHHHDEAERWYDLGAAYAARGDYDRAIEYYQRALEHDPNDAWAWWELGVAYAARGDYDRAIEYYQRALELDTNNAVAWARLGIAYAARGDYDRAIEYYQRALELDPNNEVARGALEYARRARRC |
|  |  |  |  |  |  | 654 | 31 | < 1 | affinity ligand SEQ ID NO: 161 (designed binder, biotinylated (AviTag system)) MAWAEFRQRLAAIRTRLEALGGSEAELAAFEREIAAFESELQAYAGAGNPEVEALRREAAAIRDELQAYRHNDEAERWYDLGAAYAARGDYDRAIEYYQRALELDPNDAWAWWELGVAYAARGDYDRAIEYYQRALELDLNNAVAWARLGIAYAARGDYDRAIEYYQRALELDPNNEVARDALEYARRARRHHHHHH |
|  |  |  |  |  |  | 665 | 25 | < 1 | affinity ligand SEQ ID NO: 162 (designed binder, biotinylated (AviTag system)) MGLAEAAAREAAARAADEAERWYDLGAAYAARGDYDRAIEYYQRALELDPNDAWAWWELGVAYAARGDYDRAIEYYQRALELDLNNAVAWARLGIAYAARGDYDRAIEYYQRALELDPNNEVARDALEYARRARRHHHHHH |

Second part, the binder before the results:

| Binder | Kd [1] [nM] | Kd [2] [nM] | Kd [3] [nM] | Kd [4] [nM] | Kd [5] [nM] | Kd [6] [nM] | Kd [7] [nM] | Kd [8] [nM] | Kd [9] [nM] |
| --- | --- | --- | --- | --- | --- | --- | --- | --- | --- |
| affinity ligand SEQ ID NO: 89 (designed binder, biotinylated (AviTag system)) MGGGGSAAAGDEAQHWENQGAAYAARGDYDRAIEYYGRALELDPNNAWAWWELGVAYAARGDYDRAIEYYERALELDPDDATTWSRLGHAYAARGDYDRAIEYYERALELDPEDETARYLLEHARRARQGQAGQGGGSGLNDIFEAQKIEWHECHHHHHH | 41 | 8 | < 1 | 41 | 8 | < 1 |  |  |  |
| affinity ligand SEQ ID NO: 90 (designed binder, biotinylated (AviTag system)) MGGGGSAAAGDEAQCWENQGAAYAARGDYDRAIEYYERALELDPNNAWAWWELGVAYAARGDYDRAIEYYERALELDPDDATTWSRLGHAYAARGDYDRAIEYYVRALELDPEDETARYLLEHARRARQGQAGQGGGSGLNDIFEAQKIEWHECHHHHHH | 51 | 12 | < 1 | 51 | 12 | < 1 |  |  |  |
| affinity ligand SEQ ID NO: 92 (designed binder, biotinylated (AviTag system)) MGGGGSAAAGDEAQRWENQGAAYAARGDYDRAIEYYERALELEPNNAWAWWELGVAYAARGDYDRAIEYYERALELDPDDATAWSRLGHAYAARGDYDRAIGYYERALELDPENETARYLLEHARRARQGQAGQGGGSGLNDIFEAQKIEWHECHHHHHH | 28 | 8 | < 1 | 28 | 8 | < 1 |  |  |  |
| affinity ligand SEQ ID NO: 156 (designed binder, biotinylated (AviTag system)) MAWAEFRQRLAAIRTRLEALGGSEAELAAFEREIAAFESELQAYAGAGNPEVEALRREAAAIRDELQAYRHNDEAERWYDLGAAYAARGDYDRAIEYYQRALEHDPNDAWAWWELGVAYAARGDYDRAIEYYQRALELDTNNAVAWARLGIAYAARGDYDRAIEYYQRALELDPNNEVARGALEYARRARRHHHHHH |  |  |  |  |  |  | 224 | 7 | < 1 |
| affinity ligand SEQ ID NO: 157 (designed binder, biotinylated (AviTag system)) MGLAEAAAREAAARAADEAERWYDLGAAYAARGDYDRAIEYYQRALEHDPNDAWAWWELGVAYAARGDYDRAIEYYQRALELDTNNAVAWARLGIAYAARGDYDRAIEYYQRALELDPNNEVARGALEYARRARRHHHHHH |  |  |  |  |  |  | 270 | 8 | < 1 |
| affinity ligand SEQ ID NO: 160 (designed binder, biotinylated (AviTag system)) MGHHHHHHDEAERWYDLGAAYAARGDYDRAIEYYQRALELDPNDAWAWWELGVAYAARGDYDRAIEYYQRALELDLNNAVAWARLGIAYAARGDYDRAIEYYQRALELDPNNEVARDALEYARRARRC |  |  |  |  |  |  | 543 | 24 | < 1 |
| affinity ligand SEQ ID NO: 41 (designed binder, biotinylated (AviTag system)) MAQAAAGDEAQRWETLGAAYAARGDYDRAIEYYQRALELDPNNAWAWWELGVAYAARGDYDRAIEYYQRALELDPDDAAAWRRLGHAYAARGDYDRAIEYYERALELDPEDELARRILEDARRARQGQAGQGGGSGLNDIFEAQKIEWHECHHHHHH |  |  |  | 15 | 24 | 3 |  |  |  |
